As a reminder, the EC50 is the midpoint of the concentration-response curve. For orientation: IC50 means the midpoint of a concentration-inhibition curve.

Seven molecules from US20250313625A1 (ELPISCIENCE SUZHOU BIOPHARMA, published 2025) can be followed below.

Assay [1] has as its target T1, hFc tagged human LAG3 ECD recombinant protein (human, UniProt P18627 23-450).
T1 construct: range 23-450; also called biotin labelled hFc tagged human LAG3 ECD; not shown: human IgG Fc tag
T1 sequence (looked up): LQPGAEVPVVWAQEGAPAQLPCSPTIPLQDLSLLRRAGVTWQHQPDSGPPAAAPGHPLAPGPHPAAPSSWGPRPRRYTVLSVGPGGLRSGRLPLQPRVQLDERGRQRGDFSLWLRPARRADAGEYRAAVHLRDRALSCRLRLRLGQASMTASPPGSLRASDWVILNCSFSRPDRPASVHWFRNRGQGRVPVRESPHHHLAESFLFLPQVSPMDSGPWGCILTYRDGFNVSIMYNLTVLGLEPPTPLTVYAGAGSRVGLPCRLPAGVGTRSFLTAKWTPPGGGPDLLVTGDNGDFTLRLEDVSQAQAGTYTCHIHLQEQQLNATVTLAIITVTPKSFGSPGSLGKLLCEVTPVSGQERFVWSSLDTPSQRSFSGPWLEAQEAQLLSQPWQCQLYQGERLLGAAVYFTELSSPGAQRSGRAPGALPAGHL
Description: competitive ELISA: excess competitor, biotin hFc-LAG3 ECD, coated BAP-050. The method, then:
(§1) Competitive ELISA assay was used for epitope binning of the purified hybridoma antibodies. […] After washing, HRP labeled anti-streptavidin (SA) 2nd antibody (Sigma) was added and incubated at 37° C. for 1 hour. Then, 100 μl/well of TMB solution (Biotechnology) was added. After incubation for 15 minutes at room temperature, the reaction was stopped by the addition of 50 μl of 1N HCl. OD 450 nm was read. Competition ratio was calculated.
For orientation: An ELISA detects its analyte on a solid surface through an enzyme-linked reagent.

Assay [2] deals with T2, human LAG3, full length, stably expressed on cells (human, UniProt P18627 23-525).
T2 construct: whole, on cells; also called CHOK1-human LAG3
T2 sequence (looked up): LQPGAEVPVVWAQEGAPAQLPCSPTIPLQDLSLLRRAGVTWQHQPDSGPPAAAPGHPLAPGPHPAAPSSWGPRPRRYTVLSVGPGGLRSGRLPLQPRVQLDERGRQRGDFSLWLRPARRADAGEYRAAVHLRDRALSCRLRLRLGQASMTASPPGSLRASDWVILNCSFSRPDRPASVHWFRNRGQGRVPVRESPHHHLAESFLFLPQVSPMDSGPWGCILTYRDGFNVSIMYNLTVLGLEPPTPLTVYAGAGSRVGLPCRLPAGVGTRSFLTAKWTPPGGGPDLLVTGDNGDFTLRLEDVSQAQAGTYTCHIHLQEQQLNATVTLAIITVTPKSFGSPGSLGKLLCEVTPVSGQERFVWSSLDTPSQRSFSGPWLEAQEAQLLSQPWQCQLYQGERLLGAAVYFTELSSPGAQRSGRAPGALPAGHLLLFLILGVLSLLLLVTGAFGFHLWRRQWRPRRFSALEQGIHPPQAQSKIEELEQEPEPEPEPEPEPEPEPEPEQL
Description: FACS on 293F-human LAG3 cells. The method, then:
(§2) Briefly the antibodies were incubated with 2×10⁵ target cells at 4° C. for 1 hour. After washing, fluorescence labeled anti-mouse IgG 2nd antibody (Life Technologies) was added and incubated at 4° C. for 1 hour. Geometric median fluorescence intensity (MFI) was detected and EC₅₀ was calculated using GraphPad Prism9.0.

The target of assay [3] is T3, hFc tagged human LAG3 D1-D2 recombinant protein (human, UniProt P18627 23-261).
T3 construct: range 23-261; generated by Chempartner; also called hLAG3 D1-D2; not shown: human IgG Fc tag
T3 sequence (looked up): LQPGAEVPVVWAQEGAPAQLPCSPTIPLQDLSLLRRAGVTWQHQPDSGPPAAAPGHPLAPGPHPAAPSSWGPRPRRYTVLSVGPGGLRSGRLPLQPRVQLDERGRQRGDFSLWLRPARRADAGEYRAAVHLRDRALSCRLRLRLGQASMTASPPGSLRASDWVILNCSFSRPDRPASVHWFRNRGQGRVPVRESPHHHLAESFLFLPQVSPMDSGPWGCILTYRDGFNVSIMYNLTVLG
Description: ELISA, coated hFc-hLAG3 D1-D2. The protocol:
Binding activity of the purified hybridoma antibodies against human LAG3 was detected by ELISA assay using hFc tagged human LAG3 D1-D2 recombinant protein. Briefly the antibodies were incubated with ELISA microplate coated antigens at 37° C. for 1 hour. After washing, horseradish peroxidase (HRP) labeled anti-human IgG 2nd Ab (Sigma) was added and incubated at 37° C. for 1 hour. Then, 100 μl/well of TMB solution (Biotechnology) was added. After incubation for 15 minutes at room temperature, the reaction was stopped by the addition of 50 μl of 1N HCl. OD 450 nm was read and EC₅₀ was calculated using GraphPad Prism9.0.

Assay [4] has as its target T1, hFc tagged human LAG3 ECD recombinant …. Description: competitive ELISA: excess competitor, biotin hFc-LAG3 ECD, coated BMS-986016. The method, then: as §1
For assay [5], the target named is T4, mouse LAG3, full length, stably expressed on CHOK1 cells (mouse, UniProt Q61790 24-521).
T4 construct: whole, on cells
T4 sequence (looked up): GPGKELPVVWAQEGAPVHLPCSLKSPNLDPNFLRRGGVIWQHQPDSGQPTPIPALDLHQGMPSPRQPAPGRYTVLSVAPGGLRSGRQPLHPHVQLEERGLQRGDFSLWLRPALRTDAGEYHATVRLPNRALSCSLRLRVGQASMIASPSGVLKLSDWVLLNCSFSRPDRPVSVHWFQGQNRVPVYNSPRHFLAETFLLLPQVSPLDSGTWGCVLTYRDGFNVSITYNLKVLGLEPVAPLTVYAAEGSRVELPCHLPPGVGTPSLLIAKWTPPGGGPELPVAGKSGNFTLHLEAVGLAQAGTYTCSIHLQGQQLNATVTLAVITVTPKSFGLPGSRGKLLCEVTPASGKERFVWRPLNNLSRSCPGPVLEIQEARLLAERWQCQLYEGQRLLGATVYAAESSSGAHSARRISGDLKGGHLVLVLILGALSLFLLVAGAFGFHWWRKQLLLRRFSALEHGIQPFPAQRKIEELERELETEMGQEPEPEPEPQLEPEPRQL
Description: FACS on CHOK1 cells expressing mouse LAG3. The protocol: as §2

For assay [6], the target named is T5, cyno LAG3, full length, stably expressed on 293F cells (cyno).
T5 construct: whole, on cells
Description: FACS on 293F-cyno LAG3 cells, 20 nM antibody. The protocol: as §2

Assay [7] deals with T1, hFc tagged human LAG3 ECD recombinant …. The assay can be described thus: competitive FACS: hFc-LAG3 ECD binding to Raji cells (MHC II). The method, then: Competitive FACS assay was used to determine whether the purified hybridoma antibodies can block LAG3 and MHC II interaction. […] After washing, dye labeled anti-human Fc 2nd antibody (Sigma) was added and incubated at 37° C. for 1 hour. Fluorescence intensity was detected.

B1: Antibody 024 (antibody, V domains shown)
VH: EVQLQQSGPELVKPGASVKISCKASGYTFTDYYMNWVKQSHGKRLEWIGDIDPNNGGTSYNQKFKGKATLTVDKSSSSAYMDLRSLTSEDSAVYYCARAGSYYYGSSYVEYFDVWGTGTTVTVSS
VL: DIQMTQSPASLSASVGETVTITCRASGNIHNYLAWYQQKQGASPQLLVYNAKTLADGVPSRFSGSGSGTEFSLKINSLQPEDFGNYYCQHFWNTPYTFGGGTKLEIK
notes: mouse hybridoma antibody
On to B1, for which the results for the “% competition” value in assay [1] and in assay [4] were -0.5% and 73%, respectively. Besides, the EC50 in assay [2] was found to be 2.04 nM; in assay [3], 0.05 nM. Also, in assay [5], the binding result is on record as “no binding”. Besides, in assay [6], the “MFI at 20 nM” value was found to be 154 MFI. Further, the IC50 in assay [7] came out at 5.5 nM. The “TOP blocking (%)” value in assay [7] is 81%.

B2: Antibody 023 (antibody, V domains shown)
VH: QIQLVQSGPVLKKPGETVKISCKASGYTFTESPMNWVKQAPGRGFKWMGMIYTDTGEPTYAEEFKGRFAFSLETSASTAYLQINNLKSEDTATYFCVSDYGSILYWYFDVWGTGTTVTVSS
VL: DIVMTQSHKFMSTSVGDRVSITCKASQDVSTAVAWYQQTPGQSPKLLIYSASYRYTGVPDRFTGSGSGTDFTFTISSVQAEDLAVYYCQQHYNSPPTFGAGTKLELK
notes: mouse hybridoma antibody
On to B2, for which the “% competition” value in assay [1] was -2.7%; in assay [4], 43.7%. For the same molecule, the EC50 came to 2.65 nM in assay [2] and 0.05 nM in assay [3]. In addition, in assay [5], the binding result was “no binding”. Moreover, the “MFI at 20 nM” value in assay [6] is 125 MFI. In addition, the IC50 in assay [7] stood at 4.9 nM. Besides, the “TOP blocking (%)” value in assay [7] was 84.2%.

B3: Antibody 029 (antibody, V domains shown)
VH: DVKLVESGEDLVKPGGSLKLSCAASGFTFSSYAMSWVRQTPEKRLEWVAYVTSGGDYIYYADTVKGRFTISRDDVRNTLYLQMSSLKSEDTAMYYCTRVAYDYEWYFDVWGTGAPVTVSS
VL: DIVMTQSHKFMSTSVGDRVSITCKASQDVTTAVAWYQQKPGQSPKLLIYSASYRYTGVSDRFTGSGSGTDFTFTISSVQAEDLALYYCQQHDSSPWTFGGGTKLEIK
notes: mouse hybridoma antibody
As to B3, the “% competition” value was found to be 23.5% in assay [1] and 20.3% in assay [4]. For the same molecule, the values for the EC50 in assay [2] and in assay [3] were 4.58 nM and 0.06 nM, respectively. In assay [5], the binding result was “no binding”. For the same molecule, the “MFI at 20 nM” value in assay [6] amounted to 35.6 MFI. For the same molecule, the IC50 in assay [7] amounted to 4.6 nM. The “TOP blocking (%)” value in assay [7] was determined as 90.7%.

B4: Antibody 033 (antibody, V domains shown)
VH: EVQLQQSGAELVRPGASVKLSCTASDFNIKDDYIHWVKQRPEQGLEWIGWIDLENGDTEYASKFQGKATITADTSSNTAYLQLSSLTSEDTAVYYCTTKGSHWGQGTLVTVSA
VL: DVVMTQIPLSLPVSLGDQASISCRSSQSLVYSNGNTYLNWYLQKPGQSPKLLIHKVSNRFSGVPDRFSGSGSGTDFTLKISRVEAEDLGVYFCSQSTHVPYTFGGGTKLEIR
notes: mouse hybridoma antibody
For B4, the “% competition” value came out at 3.8% in assay [1] and 92.5% in assay [4]. Moreover, the EC50 in assay [2] was determined as 2.33 nM; in assay [3] it was 0.07 nM. Also, the binding result in assay [5] is “no binding”. The “MFI at 20 nM” value in assay [6] is 83.4 MFI. The IC50 in assay [7] is 4.8 nM. For the same molecule, the “TOP blocking (%)” value in assay [7] was 98.8%.

B5: Antibody 027 (antibody, V domains shown)
VH: EVKILQSGGGLVQPGGSLKLSCAASGIDFSRYWMSWVRRTPGKGLEWIGEINPDSSTINYAPSLKDKFIISRDNAKNTLYLQMSKVRSEDTALYYCARLGIIPTYHYGSSGYYYAMDYWGQGTSVTVSS
VL: DVLMTQTPLSLPVSLGDRASISCRSSQTIVHGNGHTSLEWYLQKPGQSPQLLIYKVSNRFSGVPDRFSASGSGTDFTLTISRVEAEDLGVYYCFQVSHVPYTFGGGTKLEIK
notes: mouse hybridoma antibody
Turning to B5, the “% competition” value in assay [1] stood at 85.1%; in assay [4], 7.2%. Further, the results for the EC50 in assay [2] and in assay [3] were 2.38 nM and 0.05 nM, respectively. Besides, the binding result in assay [5] is recorded as “no binding”. Besides, the “MFI at 20 nM” value in assay [6] worked out at 132 MFI. The IC50 in assay [7] was 5.4 nM. Further, the “TOP blocking (%)” value in assay [7] is 97.2%.

B6: Antibody 035 (antibody, V domains shown)
VH: QVQLQQSGAELARPGASVKLSCKASGYSFTSYGINWVKQRTGQGLEWIGEIYPRSGNTYYNEKFKDKATLTADKSSSTAYMELRSLTSEDSAVYFCARGGTYDGYYYAMDFWGQGTSVTVSS
VL: DIVLTQSPASLAVSLGQRATISCRASESVDNFGSSFLHWYQQKPGQAPKLLIYRASNLESGIPARFSGSGSRTDFTLTINPVETDDVATYYCQQVNKDPRTFGGGTKLEIK
notes: mouse hybridoma antibody
Take B6: the “% competition” value in assay [1] stood at 91.9%; in assay [4] it was 21.7%. Moreover, the 50% effective concentration (EC50) came to 0.66 nM in assay [2] and 0.06 nM in assay [3]. For the same molecule, the binding result in assay [5] was “no binding”. The “MFI at 20 nM” value in assay [6] was 155 MFI. Moreover, in assay [7], the IC50 was found to be 5 nM. The “TOP blocking (%)” value in assay [7] was 99.2%.

B7: Antibody 047 (antibody, V domains shown)
VH: QVQLQQSGAELARPGASVKLSCKASGYSFTSYGVNWVKQRTGQGLEWIGEIYPRSGNTYYNERFGDKATLTADKSSSTAYMEIRSLTSEDSAVYFCARGGTYDGYYYAMDYWGQGTSVTVSS
VL: DIVLTQSPASLAVSLGQRATISCRASESVDNFGSSFMHWYQQKPGQAPKLLIYRASNLESGIPARFSGSGSRTDFTLTINPVETDDVATYYCQQVNKDPRTFGGGTKLEIK
notes: mouse hybridoma antibody
B7: the “% competition” value in assay [1] came out at 87.4%; in assay [4] it was 8.9%. The EC50 in assay [2] was determined as 1.14 nM; in assay [3], 0.04 nM. In addition, in assay [5], the binding result is “no binding”. Moreover, in assay [6], the “MFI at 20 nM” value amounted to 129 MFI. In addition, in assay [7], the IC50 was found to be 7.7 nM. For the same molecule, the “TOP blocking (%)” value in assay [7] stood at 82.7%.
